Measurements: paper PMC3814645 (Genes & Development, 2013)

Biological target: eIF4E (endogenous) (human (endogenous in HCT116), UniProt P06730 1-217)
Assay: co-IP

Chain of eIF4E (endogenous) (P06730 whole entry): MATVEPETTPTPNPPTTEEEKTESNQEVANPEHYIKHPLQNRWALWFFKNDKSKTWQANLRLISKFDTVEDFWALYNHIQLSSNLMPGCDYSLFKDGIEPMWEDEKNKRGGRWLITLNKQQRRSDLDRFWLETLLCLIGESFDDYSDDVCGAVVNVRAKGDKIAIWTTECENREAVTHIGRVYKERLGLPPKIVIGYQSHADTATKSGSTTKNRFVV

ratio of p-RNPC1 versus RNPC1 in anti-eIF4E immunocomplexes: 0.12
B1: p-RNPC1 (endogenous RNPC1 phosphorylated at Ser195) (natural protein, human (endogenous in HCT116 and RKO), UniProt Q9H0Z9 1-239, looked up)
chain: MLLQPAPCAPSAGFPRPLAAPGAMHGSQKDTTFTKIFVGGLPYHTTDASLRKYFEGFGDIEEAVVITDRQTGKSRGYGFVTMADRAAAERACKDPNPIIDGRKANVNLAYLGAKPRSLQTGFAIGVQQLHPTLIQRTYGLTPHYIYPPAIVQPSVVIPAAPVPSLSSPYIEYTPASPAYAQYPPATYDQYPYAASPATAASFVGYSYPAAVPQALSAAAPAGTTFVQYQAPQLQPDRMQ
modifications: phosphoserine at 195
